According to paper PMC6642083, “Structural basis of tubulin detyrosination by VASH2/SVBP heterodimer” (Nature Communications, 2019):

Target: T1, VASH2_(1–355)(C158A)/SVBP_(1–66) (Mus musculus, UniProt Q8C5G2 1-355; Q99LQ4 1-66, C158A)
T1 construct: SVBP, Mus musculus, residues 1-66; also called VASH2(C158A)/SVBP; source: Sf9, co-expressed (baculovirus), purified (Ni-NTA, heparin, SEC); not shown: His-tag, N-terminal, cleaved
Test: crystal structure; tail peptide (1 mM) co-crystallized with VASH2 1–355(C158A)/SVBP 1–66 (5 mg/ml), 2.5 Å; 0.1 M HEPES pH 7.0, 1 M (NH4)2SO4, 1.105 M KCl, 18 °C
Settings: both partners purified

T1 sequence (Q8C5G2 whole entry C158A, chain 1 of 2, the tested form may be a part): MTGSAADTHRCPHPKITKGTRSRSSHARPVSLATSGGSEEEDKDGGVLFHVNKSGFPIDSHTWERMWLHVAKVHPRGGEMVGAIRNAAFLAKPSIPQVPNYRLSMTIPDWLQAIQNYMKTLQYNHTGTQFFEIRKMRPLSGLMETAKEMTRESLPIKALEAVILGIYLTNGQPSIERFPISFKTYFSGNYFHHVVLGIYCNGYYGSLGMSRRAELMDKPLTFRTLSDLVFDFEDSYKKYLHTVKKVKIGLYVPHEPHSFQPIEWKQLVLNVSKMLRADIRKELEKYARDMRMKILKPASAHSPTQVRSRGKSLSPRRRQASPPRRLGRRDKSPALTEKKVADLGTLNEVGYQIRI
T1 sequence (Q99LQ4 whole entry, chain 2 of 2, the tested form may be a part): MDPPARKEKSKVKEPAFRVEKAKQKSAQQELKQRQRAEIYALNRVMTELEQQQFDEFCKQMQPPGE

binding result: binds
B1: α-tubulin C-terminal tail peptide (VDSVEGEGEEEGEEY) (peptide)
peptide: VDSVEGEGEEEGEEY
notes: C-terminal tail of α-tubulin; Only the last five residues (EGEEY) were built in the crystal structure; also called tubulin tail; full-length tail; source: synthetic peptide (Biosynthesis)
